The source of these data is patent US7238491, “Pregnane X receptor method” (SmithKline Beecham Corporation).

The target in series [1] is T1, hPXR/hRXR heterodimer (RXR isoform not stated) (Homo sapiens, UniProt O75469;P19793 O75469:1-434,P19793:1-462). The series can be described thus: competition; little or no competition at 10- or 50-fold excess in EMSA. The conditions noted are these: tags: none; TNT rabbit reticulocyte lysate. As for the experimental part: (§1) Band Shift Assays hPXR, mPXR1, and hRXR were synthesized in vitro using the TNT rabbit reticulocyte lysate coupled in vitro transcription/translation system (Promega) according to the manufacturer's instructions. Gel mobility shift assays (20 µl) contained 10 mM Tris (pH 8.0), 40 mM KCl, 0.05% NP-40, 6% glycerol, 1 mM DTT, 0.2 µg of poly(dI-dC) and 2.5 µl each of in vitro synthesized PXR and RXR proteins. Competitor oligonucleotides were included at a 10-fold or 50-fold excess. After a 10 min incubation on ice, 10 ng of [^32P]-labeled oligonucleotide was added and the incubation continued for an additional 10 min. DNA-protein complexes were resolved on a 4% polyacrylamide gel in 0.5×TBE (1×TBE=90 mM Tris, 90 mM boric acid, 2 mM EDTA). Gels were dried and subjected to autoradiography at –70° C. The following oligonucleotides were used as either radiolabeled probes or competitors (sense strand is shown):
(§2) In order to determine whether hPXR interacted directly with the CYP3A4 IR6 response element, band shift assays were performed.
Background: A gel shift assay detects complexes by their altered migration in electrophoresis.

The target of series [2] is T2, mPXR1/hRXR heterodimer (Mus musculus / Homo sapiens, UniProt O54915;P19793 O54915:1-431,P19793:1-462). The series can be described thus: competition; same profile as hPXR/RXR; little or no competition. To be noted: tags: none; TNT rabbit reticulocyte lysate. On the procedure: as §1, §2
T2 sequence (O54915 whole entry, chain 1 of 2): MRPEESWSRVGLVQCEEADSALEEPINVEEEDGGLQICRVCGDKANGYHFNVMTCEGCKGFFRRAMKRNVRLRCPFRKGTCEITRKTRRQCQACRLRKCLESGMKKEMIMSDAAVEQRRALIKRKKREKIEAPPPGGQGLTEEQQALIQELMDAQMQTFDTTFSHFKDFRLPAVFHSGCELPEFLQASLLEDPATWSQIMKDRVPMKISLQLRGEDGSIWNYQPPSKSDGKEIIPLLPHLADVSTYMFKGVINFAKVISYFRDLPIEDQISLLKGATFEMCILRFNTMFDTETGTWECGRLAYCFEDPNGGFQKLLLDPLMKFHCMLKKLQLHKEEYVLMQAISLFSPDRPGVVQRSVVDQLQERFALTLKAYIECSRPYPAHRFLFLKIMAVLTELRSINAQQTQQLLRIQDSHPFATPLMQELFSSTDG
T2 sequence (P19793 whole entry, chain 2 of 2): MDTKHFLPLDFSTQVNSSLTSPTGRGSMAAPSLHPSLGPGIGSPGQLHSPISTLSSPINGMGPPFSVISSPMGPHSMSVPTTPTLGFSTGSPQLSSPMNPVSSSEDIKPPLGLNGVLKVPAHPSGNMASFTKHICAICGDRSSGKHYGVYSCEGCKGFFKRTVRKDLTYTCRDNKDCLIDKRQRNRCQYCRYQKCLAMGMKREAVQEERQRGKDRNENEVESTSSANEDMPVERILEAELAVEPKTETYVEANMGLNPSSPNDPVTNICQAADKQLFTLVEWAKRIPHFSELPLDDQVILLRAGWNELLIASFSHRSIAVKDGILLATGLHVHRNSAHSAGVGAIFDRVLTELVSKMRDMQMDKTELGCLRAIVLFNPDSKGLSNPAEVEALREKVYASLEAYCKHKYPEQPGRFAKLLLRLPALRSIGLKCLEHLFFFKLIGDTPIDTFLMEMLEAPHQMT
The target in series [3] is T2, mPXR1/hRXR heterodimer. The experiment in a line: EMSA; same binding profile as hPXR/RXR. The conditions noted are these: tags: none; TNT rabbit reticulocyte lysate; label: 32P (probe). As for the experimental part: as §1, §2
Another series deals with hRXR (Homo sapiens, UniProt P19793 P19793:1-462). The experiment in a line: EMSA; RXR alone without PXR. To be noted: tags: none; TNT rabbit reticulocyte lysate; label: 32P (probe). As for the experimental part:
as §1, §2

Series [4] deals with T1, hPXR/hRXR heterodimer (RXR isoform not …). The experiment in a line: EMSA; 10 mM Tris pH 8.0, 40 mM KCl, 0.05% NP-40, 6% glycerol, 1 mM DTT, poly(dI-dC), on ice; self-competed by unlabeled IR6. The conditions noted are these: tags: none; TNT rabbit reticulocyte lysate; label: 32P (probe). On the procedure:
as §1, §2

For series [5] the target is unchanged. The experiment in a line: competition; efficient competitor of IR6 probe at 10- or 50-fold excess in EMSA. The conditions noted are these: tags: none; TNT rabbit reticulocyte lysate. As for the experimental part: as §1, §2
Series [6] addresses T2, mPXR1/hRXR heterodimer. The experiment in a line: competition; same profile as hPXR/RXR; competes with IR6 probe. The conditions noted are these: tags: none; TNT rabbit reticulocyte lysate. As for the experimental part: as §1, §2

T1 sequence (O75469 whole entry, chain 1 of 2, canonical isoform): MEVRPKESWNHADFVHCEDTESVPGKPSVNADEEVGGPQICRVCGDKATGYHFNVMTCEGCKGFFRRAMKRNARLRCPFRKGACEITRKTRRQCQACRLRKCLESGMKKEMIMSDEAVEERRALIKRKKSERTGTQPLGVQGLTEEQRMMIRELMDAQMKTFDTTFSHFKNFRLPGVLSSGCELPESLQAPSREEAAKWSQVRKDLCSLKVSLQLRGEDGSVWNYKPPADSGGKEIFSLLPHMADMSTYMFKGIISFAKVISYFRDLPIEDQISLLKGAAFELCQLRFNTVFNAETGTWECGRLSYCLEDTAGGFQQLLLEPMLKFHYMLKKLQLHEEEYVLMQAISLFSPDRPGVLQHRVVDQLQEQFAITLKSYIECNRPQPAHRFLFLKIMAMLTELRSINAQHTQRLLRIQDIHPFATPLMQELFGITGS
T1 sequence (P19793 whole entry, chain 2 of 2, canonical isoform): as the sequence (P19793 whole entry, chain 2 of 2) above
Chain of hRXR (P19793 whole entry, one chain of several): as the sequence (P19793 whole entry, chain 2 of 2) above

B1: CYP3A4 IR6 m2 (dsDNA)
DNA 1: GATCAATAACAACTCAAAGGAGGTCAGTG
DNA 2: CACTGACCTCCTTTGAGTTGTTATTGATC
With B1, the binding result (in series [1]; with mPXR1/hRXR heterodimer [2]) was “no binding” each time.

B2: CYP3A4 IR6 m1 (dsDNA)
DNA 1: GATCAATATGTTCTCAAAGGAGAACAGTG
DNA 2: CACTGTTCTCCTTTGAGAACATATTGATC
For the molecule B2, the binding result (in series [1]; in the series with mPXR1/hRXR heterodimer [2]) was “no binding” in each case.

B3: CYP3A4 IR6 PXRE (dsDNA)
DNA 1: GATCAATATGAACTCAAAGGAGGTCAGTG
DNA 2: CACTGACCTCCTTTGAGTTCATATTGATC
For B3, the results for the binding result (with mPXR1/hRXR heterodimer [3]; with hRXR; in series [4]) were “binds”, “no binding” and “binds”, respectively.

B4: CYP3A1 DR3 PXRE (dsDNA)
DNA 1: GATGCAGACAGTTCATGAAGTTCATCTAGATC
DNA 2: GATCTAGATGAACTTCATGAACTGTCTGCATC
B4: the binding result (in series [5]; with mPXR1/hRXR heterodimer [6]) was “binds” throughout.
